Results reported in patent US10407712B2, “Methods, compositions and kits for high throughput kinase activity screening using mass spectrometry and stable isotopes” (President and Fellows of Harvard College, priority 2008, dated 2019).

Experiments:
recombinant RSK1 = target: T1, recombinant RSK1 (Homo sapiens, UniProt Q15418); experiment: In vitro peptide phosphorylation by purified RSK; format: biochemical; settings: 100 μM peptide, individually reacted
T1 construct: 90 kDa ribosomal S6 kinases 1 (RSK1, 1-735); purchased Cell Signaling Technology (Danvers, Mass.)
T1 sequence (Q15418 whole entry): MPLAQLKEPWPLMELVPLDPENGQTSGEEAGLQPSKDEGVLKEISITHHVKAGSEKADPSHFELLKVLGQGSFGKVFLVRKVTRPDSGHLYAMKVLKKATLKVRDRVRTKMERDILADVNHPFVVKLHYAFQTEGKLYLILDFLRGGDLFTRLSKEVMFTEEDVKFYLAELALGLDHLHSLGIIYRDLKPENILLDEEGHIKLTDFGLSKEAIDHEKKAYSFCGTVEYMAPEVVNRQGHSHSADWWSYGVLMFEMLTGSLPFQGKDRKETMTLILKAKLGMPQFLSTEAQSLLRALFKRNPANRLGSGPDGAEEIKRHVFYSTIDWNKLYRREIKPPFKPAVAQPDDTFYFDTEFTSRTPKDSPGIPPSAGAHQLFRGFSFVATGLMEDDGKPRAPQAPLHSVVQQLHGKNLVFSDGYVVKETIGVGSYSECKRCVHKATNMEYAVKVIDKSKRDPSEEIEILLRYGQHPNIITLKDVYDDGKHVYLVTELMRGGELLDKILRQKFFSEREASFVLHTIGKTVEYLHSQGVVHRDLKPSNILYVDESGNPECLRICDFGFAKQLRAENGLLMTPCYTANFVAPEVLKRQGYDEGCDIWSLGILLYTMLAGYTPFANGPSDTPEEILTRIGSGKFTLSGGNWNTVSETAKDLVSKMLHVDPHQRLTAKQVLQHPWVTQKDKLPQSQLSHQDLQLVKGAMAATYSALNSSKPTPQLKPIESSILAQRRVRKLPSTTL
Description: (§1) Reaction mixture was supplemented with 0.1% BSA. Other conditions were the same as in FIG. 10A.
(§2) Purified human active kinases of Akt1 (full length), extracellular signal-regulated kinase 1 (ERK1, 1-379), mitogen-activated protein kinase kinase 1 (MEK1, 1-393), 90 kDa ribosomal S6 kinases 1 (RSK1, 1-735), cAMP-dependent protein kinase (PKA) catalytic subunit-α (PKA Cα, 1-351), protein kinase Cα (PKCα, full length), epidermal growth factor (EGF) receptor (EGFR, 672-1210), platelet-derived growth factor (PDGF) receptor α (PDGFRα, 550-1090), vascular endothelial growth factor (VEGF) receptor 1 (VEGFR1 784-1338), Src (full length), casein kinase 2 (CK2, full length), Aurora A (1-403), AMP-activated protein kinase α1β1γ1 (AMPK α1β1γ1, full length), glycogen synthase kinase-3α (GSK-3α, 1-483) and MAP/microtubule affinity-regulating kinase 1 (MARK 1, full length) were obtained from Cell Signaling Technology (Danvers, Mass.). Cdc2/cyclin B1 (full length) and insulin-like growth factor (IGF)-I receptor (IGFIR, 959-1367) were obtained from Upstate (Temecula, Calif.).
Peptides were synthesized, purified and quantified as described in Yu et al. 2009 Proc Natl Acad Sci USA 106: 11606-11611, hereby incorporated by reference herein in its entirety. […] Alternatively, reactions were performed using 6 μg cell lysate aliquotes mixed to a final volume of 20 μl. Cell lysate or other kinase source was added to the substrate mixture in 25 mM Tris-Cl, pH 7.5, containing 5 mM ATP, 7.5 mM MgCl2, 0.2 mM EGTA, 7.5 mM β-glycerophosphate, 0.1 mM Na3VO4, and 0.1 mM DTT. The reaction was incubated at 25° C. for 60 min and then terminated by the addition of 100 μl of 1% trifluoroacetic acid (TFA) containing a known amount of an internal standard (typically 20 pmol). Alternatively, the reaction was incubated at 20° C. for 45 min before termination with TFA.
It was observed that basal phosphorylation of these peptides was not affected by knockdown and likely was the result of remaining RSK isoforms or other basophilic kinases (FIG. 5C).

activated, purified Akt = target: T2, activated, purified Akt (Homo sapiens, UniProt P31749); experiment: In vitro peptide phosphorylation by purified Akt; format: biochemical; settings: 100 μM peptide, individually reacted
T2 construct: Purified human active kinases of Akt1 (full length); purchased Cell Signaling Technology (Danvers, Mass.)
T2 sequence (P31749 whole entry): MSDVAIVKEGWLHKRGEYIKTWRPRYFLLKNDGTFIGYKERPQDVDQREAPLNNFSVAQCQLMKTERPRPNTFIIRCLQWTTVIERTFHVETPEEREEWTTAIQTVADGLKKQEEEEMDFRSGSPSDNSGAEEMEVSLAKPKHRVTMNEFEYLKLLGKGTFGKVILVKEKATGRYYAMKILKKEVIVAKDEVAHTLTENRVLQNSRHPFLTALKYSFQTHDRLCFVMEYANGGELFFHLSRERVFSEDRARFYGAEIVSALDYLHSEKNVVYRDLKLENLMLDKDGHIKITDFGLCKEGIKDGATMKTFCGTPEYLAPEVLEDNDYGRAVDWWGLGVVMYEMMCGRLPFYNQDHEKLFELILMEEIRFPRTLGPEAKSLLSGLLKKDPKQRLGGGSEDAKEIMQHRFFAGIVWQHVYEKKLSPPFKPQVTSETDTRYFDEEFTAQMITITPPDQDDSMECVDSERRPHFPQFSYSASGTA
Description: as §1, §2
Peptides were synthesized, purified and quantified as described in Yu et al. 2009 Proc Natl Acad Sci USA 106: 11606-11611, hereby incorporated by reference herein in its entirety. […] Alternatively, reactions were performed using 6 μg cell lysate aliquotes mixed to a final volume of 20 μl. […]

HEK293 cell lysates = experiment: Single-reaction 90-substrate KAYAK assay, HEK293 lysates with or without insulin; format: biochemical, human; settings: 5 μM each peptide, HEK293 lysate
Method: For stimulation of HEK293 cells or HeLa lines, cells were treated with insulin (100 nM; 10-30 min) EGF (50 ng/ml; 10 min) or phorbol 12-myristate 13-acetate (PMA; 50 or 100 ng/ml; 10 -30 min) at 37° C. for the indicated times after overnight serum-starvation.
Alternatively, cells were washed with PBS once and lysed with ice-cold lysis buffer, 10 mM potassium phosphate, pH 7.0, containing 0.5% NP-40, 0.1% Brij 35, 0.1% deoxycholic acid, 1 mM ethylenediaminetetraacetic acid (EDTA), 5 mM ethylene glycol tetraacetic acid (EGTA), 10 mM MgCl2, 50 mM β-glycerophosphate, 1 mM Na3VO4, 2 mM dithiothreitol (DTT) and protease inhibitor cocktail (Complete, Roche Applied Science, Indianapolis, Ind.). Homogenates were centrifuged at 10,000 rpm for 15 min at 4° C., and the supernatant was used as lysate. Protein concentration was quantified by a modified Bradford assay (Pierce).
Peptides were synthesized, purified and quantified as described in Yu et al. 2009 Proc Natl Acad Sci USA 106: 11606-11611, hereby incorporated by reference herein in its entirety. Each substrate peptide (250 pmol) was mixed to a final concentration of 5 μM in the 50 μL reaction mixture. Alternatively, reactions were performed using 6 μg cell lysate aliquotes mixed to a final volume of 20 μl. Cell lysate or other kinase source was added to the substrate mixture in 25 mM Tris-Cl, pH 7.5, containing 5 mM ATP, 7.5 mM MgCl2, 0.2 mM EGTA, 7.5 mM β-glycerophosphate, 0.1 mM Na3VO4, and 0.1 mM DTT. The reaction was incubated at 25° C. for 60 min and then terminated by the addition of 100 μl of 1% trifluoroacetic acid (TFA) containing a known amount of an internal standard (typically 20 pmol). Alternatively, the reaction was incubated at 20° C. for 45 min before termination with TFA.
Internal standard heavy peptides (5 pmol each) were added as a mixture to the terminated reactions followed by desalting with a solid phase extraction cartridge (SepPak tC18 (50 mg), Waters, Milford, Mass.). Phosphopeptides were enriched as described (Villen et al. 2008 Nat Protoc 3: 1630-1638). […]
For KAYAK analyses, phosphopeptides were dissolved in 5% FA and injected onto a 125-μm-internal diameter fused silica column packed with Magic C18 AQ material (Michrom Bioresources, Auburn, Calif.). Peptides were separated using a two-solvent system: solvent A (0.125% FA and 3% ACN in H2O), solvent B (0.125% FA in ACN) over 32 min gradient, and eluting peptides were directly analyzed using an LTQ-Orbitrap mass spectrometer (Thermo Scientific, San Jose, Calif.) equipped with the electron transfer dissociation option. […]

- phosphorylation by RSK (recombinant RSK1): strong phosphorylation
- phosphorylation by Akt (activated, purified Akt): strong phosphorylation
Sequence: RIRTQSFSLQPFR (The sequence was designed and synthesized) [F6]
- phosphorylation in response to insulin stimulation (HEK293 cell lysates): increased phosphorylation
